Test results: patent publication US20140274782A1, “AFFINITY REAGENTS AND METHODS FOR DETECTION, PURIFICATION, AND PROTEOMIC ANALYSIS OF METHYLATED PROTEINS” (The Board of Trustees of the Leland Stanford Junior …, priority 2013, published 2014)
One block for each molecule: values may come before it.

Molecular target: T1, G9a and GLP (Homo sapiens, UniProt Q96KQ7+Q9H9B1)
T1 sequence (Q96KQ7 2-1210 limits assumed): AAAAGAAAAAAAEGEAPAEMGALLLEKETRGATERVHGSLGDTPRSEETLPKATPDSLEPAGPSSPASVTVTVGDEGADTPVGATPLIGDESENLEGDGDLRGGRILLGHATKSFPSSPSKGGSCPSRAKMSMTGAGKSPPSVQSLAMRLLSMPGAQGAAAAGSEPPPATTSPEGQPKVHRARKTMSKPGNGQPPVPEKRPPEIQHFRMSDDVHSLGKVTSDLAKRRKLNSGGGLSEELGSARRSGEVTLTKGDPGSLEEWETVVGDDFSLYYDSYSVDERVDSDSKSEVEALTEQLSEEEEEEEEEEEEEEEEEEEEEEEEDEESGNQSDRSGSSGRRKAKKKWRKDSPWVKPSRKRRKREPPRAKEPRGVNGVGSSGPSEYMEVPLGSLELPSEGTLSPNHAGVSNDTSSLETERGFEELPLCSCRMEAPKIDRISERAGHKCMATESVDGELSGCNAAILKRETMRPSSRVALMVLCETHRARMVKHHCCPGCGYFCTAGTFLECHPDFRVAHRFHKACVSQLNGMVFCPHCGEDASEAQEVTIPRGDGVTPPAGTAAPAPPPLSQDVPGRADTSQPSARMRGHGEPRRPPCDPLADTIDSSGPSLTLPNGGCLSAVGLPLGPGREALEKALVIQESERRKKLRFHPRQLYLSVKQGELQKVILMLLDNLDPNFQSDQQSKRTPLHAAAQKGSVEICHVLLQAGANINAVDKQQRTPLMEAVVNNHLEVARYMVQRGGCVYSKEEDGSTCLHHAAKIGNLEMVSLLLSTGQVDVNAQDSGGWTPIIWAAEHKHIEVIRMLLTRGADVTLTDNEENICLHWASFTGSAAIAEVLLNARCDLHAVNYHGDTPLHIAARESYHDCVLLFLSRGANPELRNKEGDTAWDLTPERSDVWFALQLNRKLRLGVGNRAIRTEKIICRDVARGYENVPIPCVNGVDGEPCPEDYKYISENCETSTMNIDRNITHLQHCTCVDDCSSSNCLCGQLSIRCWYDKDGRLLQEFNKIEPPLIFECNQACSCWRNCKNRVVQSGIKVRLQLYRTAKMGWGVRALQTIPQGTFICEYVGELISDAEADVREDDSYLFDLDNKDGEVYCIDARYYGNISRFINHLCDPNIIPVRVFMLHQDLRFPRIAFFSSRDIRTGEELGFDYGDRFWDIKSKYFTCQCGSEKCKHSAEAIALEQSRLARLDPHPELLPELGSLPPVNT
T1 sequence (Q9H9B1 2-1298 limits assumed): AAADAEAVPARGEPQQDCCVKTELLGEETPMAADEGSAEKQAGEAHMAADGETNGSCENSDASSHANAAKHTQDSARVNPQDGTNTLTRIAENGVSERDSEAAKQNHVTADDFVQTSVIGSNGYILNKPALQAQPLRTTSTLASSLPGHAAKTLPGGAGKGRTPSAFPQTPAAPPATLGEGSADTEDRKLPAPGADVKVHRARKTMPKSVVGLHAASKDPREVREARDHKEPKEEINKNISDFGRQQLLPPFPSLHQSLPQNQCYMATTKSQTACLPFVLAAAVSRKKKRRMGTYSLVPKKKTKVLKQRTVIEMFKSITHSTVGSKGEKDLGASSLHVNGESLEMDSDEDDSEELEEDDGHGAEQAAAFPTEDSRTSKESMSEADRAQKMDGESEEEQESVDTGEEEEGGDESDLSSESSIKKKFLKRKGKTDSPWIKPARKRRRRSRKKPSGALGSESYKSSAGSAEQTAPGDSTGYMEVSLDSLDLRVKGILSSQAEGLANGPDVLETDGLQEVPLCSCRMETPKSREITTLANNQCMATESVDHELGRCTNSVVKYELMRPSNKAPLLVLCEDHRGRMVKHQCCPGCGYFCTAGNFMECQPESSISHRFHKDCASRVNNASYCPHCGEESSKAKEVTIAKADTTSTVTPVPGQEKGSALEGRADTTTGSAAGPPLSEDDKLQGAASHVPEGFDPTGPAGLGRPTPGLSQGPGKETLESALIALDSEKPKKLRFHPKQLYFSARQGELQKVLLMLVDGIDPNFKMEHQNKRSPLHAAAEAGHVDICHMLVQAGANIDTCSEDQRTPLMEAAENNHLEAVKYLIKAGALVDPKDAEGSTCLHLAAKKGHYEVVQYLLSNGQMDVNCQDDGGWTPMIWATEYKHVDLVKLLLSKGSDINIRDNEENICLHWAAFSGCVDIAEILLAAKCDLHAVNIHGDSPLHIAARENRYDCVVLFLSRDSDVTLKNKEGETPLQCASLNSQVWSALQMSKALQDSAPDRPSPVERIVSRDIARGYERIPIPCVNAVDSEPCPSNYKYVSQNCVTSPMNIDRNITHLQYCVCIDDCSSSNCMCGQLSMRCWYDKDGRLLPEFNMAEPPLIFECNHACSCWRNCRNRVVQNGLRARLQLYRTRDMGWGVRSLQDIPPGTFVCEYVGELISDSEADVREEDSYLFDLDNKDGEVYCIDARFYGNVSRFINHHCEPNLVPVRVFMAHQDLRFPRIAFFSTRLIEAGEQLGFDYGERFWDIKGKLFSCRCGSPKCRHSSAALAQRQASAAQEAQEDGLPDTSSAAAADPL
Assay: Triple SILAC pull-down after UNC0638 treatment of 293T cells, DMSO/UNC0638 ratio of protein captured by 3×MBT;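 also: mass spectrometry (Q-Exactive) SILAC quantitation, DMSO/UNC0638 ratio computed after subtracting 3×MBTD355N mutant pull-down background, only proteins with at least twofold 3×MBT over mutant signal considered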
Format: cell-based
Design: cells were treated for 24 hours with UNC0638 at 2.5 μM or DMSO vehicle control; endogenous in cells; host or cells: HEK 293T
Conditions: for Relative to UNC0638 UNC Heavy / Relative to UNC0638 UNC Light: SILAC ratio DMSO/UNC0638 of protein pulled down with 3xMBT; for Relative to UNC0638 UNC Heavy: UNC0638 in heavy SILAC media; for Relative to UNC0638 UNC Light: UNC0638 in light SILAC media; for Relative to UNC0638 Average: average of UNC Light and UNC Heavy experiments

- Relative to UNC0638 UNC Heavy: 0.27 log base 2
- Relative to UNC0638 UNC Light: 0.04 log base 2
- Relative to UNC0638 Average: 0.15 log base 2
B2: eEF1A1: protein with methylated lysine identified in 3xMBT pull-down (protein, UniProt P68104 2-462, looked up)
Elongation factor 1-alpha 1: GKEKTHINIVVIGHVDSGKSTTTGHLIYKCGGIDKRTIEKFEKEAAEMGKGSFKYAWVLDKLKAERERGITIDISLWKFETSKYYVTIIDAPGHRDFIKNMITGTSQADCAVLIVAAGVGEFEAGISKNGQTREHALLAYTLGVKQLIVGVNKMDSTEPPYSQKRYEEIVKEVSTYIKKIGYNPDTVAFVPISGWNGDNMLEPSANMPWFKGWKVTRKDGNASGTTLLEALDCILPPTRPTDKPLRLPLQDVYKIGGIGTVPVGRVETGVLKPGMVVTFAPVNVTTEVKSVEMHHEALSEALPGDNVGFNVKNVSVKDVRRGNVAGDSKNDPPMEAAGFTAQVIILNHPGQISAGYAPVLDCHTAHIACKFAELKEKIDRRSGKKLEDGPKFLKSGDAAIVDMVPGKPMCVESFSDYPPLGRFAVRDMRQTVAVGVIKAVDKKAAGAGKVTKSAQKAQKAK
modifications: methylated lysine
notes: protein with methylated lysine identified in 3xMBT pull-down

- Relative to UNC0638 UNC Heavy: 0.31 log base 2
- Relative to UNC0638 UNC Light: 0.00 log base 2
- Relative to UNC0638 Average: 0.16 log base 2
B4: GTF2I: protein with methylated lysine identified in 3xMBT pull-down (protein, UniProt P78347 2-998, looked up)
General transcription factor …: AQVAMSTLPVEDEESSESRMVVTFLMSALESMCKELAKSKAEVACIAVYETDVFVVGTERGRAFVNTRKDFQKDFVKYCVEEEEKAAEMHKMKSTTQANRMSVDAVEIETLRKTVEDYFCFCYGKALGKSTVVPVPYEKMLRDQSAVVVQGLPEGVAFKHPENYDLATLKWILENKAGISFIIKRPFLEPKKHVGGRVMVTDADRSILSPGGSCGPIKVKTEPTEDSGISLEMAAVTVKEESEDPDYYQYNIQAGPSETDDVDEKQPLSKPLQGSHHSSEGNEGTEMEVPAEDSTQHVPSETSEDPEVEVTIEDDDYSPPSKRPKANELPQPPVPEPANAGKRKVREFNFEKWNARITDLRKQVEELFERKYAQAIKAKGPVTIPYPLFQSHVEDLYVEGLPEGIPFRRPSTYGIPRLERILLAKERIRFVIKKHELLNSTREDLQLDKPASGVKEEWYARITKLRKMVDQLFCKKFAEALGSTEAKAVPYQKFEAHPNDLYVEGLPENIPFRSPSWYGIPRLEKIIQVGNRIKFVIKRPELLTHSTTEVTQPRTNTPVKEDWNVRITKLRKQVEEIFNLKFAQALGLTEAVKVPYPVFESNPEFLYVEGLPEGIPFRSPTWFGIPRLERIVRGSNKIKFVVKKPELVISYLPPGMASKINTKALQSPKRPRSPGSNSKVPEIEVTVEGPNNNNPQTSAVRTPTQTNGSNVPFKPRGREFSFEAWNAKITDLKQKVENLFNEKCGEALGLKQAVKVPFALFESFPEDFYVEGLPEGVPFRRPSTFGIPRLEKILRNKAKIKFIIKKPEMFETAIKESTSSKSPPRKINSSPNVNTTASGVEDLNIIQVTIPDDDNERLSKVEKARQLREQVNDLFSRKFGEAIGMGFPVKVPYRKITINPGCVVVDGMPPGVSFKAPSYLEISSMRRILDSAEFIKFTVIRPFPGLVINNQLVDQSESEGPVIQESAEPSQLEVPATEEIKETDGSSQIKQEPDPTW
modifications: methylated lysine
notes: as for B2

Continued, molecule first:

B1: DDX1: protein with methylated lysine identified in 3xMBT pull-down (protein, UniProt Q92499 1-740, looked up)
ATP-dependent RNA helicase …: MAAFSEMGVMPEIAQAVEEMDWLLPTDIQAESIPLILGGGDVLMAAETGSGKTGAFSIPVIQIVYETLKDQQEGKKGKTTIKTGASVLNKWQMNPYDRGSAFAIGSDGLCCQSREVKEWHGCRATKGLMKGKHYYEVSCHDQGLCRVGWSTMQASLDLGTDKFGFGFGGTGKKSHNKQFDNYGEEFTMHDTIGCYLDIDKGHVKFSKNGKDLGLAFEIPPHMKNQALFPACVLKNAELKFNFGEEEFKFPPKDGFVALSKAPDGYIVKSQHSGNAQVTQTKFLPNAPKALIVEPSRELAEQTLNNIKQFKKYIDNPKLRELLIIGGVAARDQLSVLENGVDIVVGTPGRLDDLVSTGKLNLSQVRFLVLDEADGLLSQGYSDFINRMHNQIPQVTSDGKRLQVIVCSATLHSFDVKKLSEKIMHFPTWVDLKGEDSVPDTVHHVVVPVNPKTDRLWERLGKSHIRTDDVHAKDNTRPGANSPEMWSEAIKILKGEYAVRAIKEHKMDQAIIFCRTKIDCDNLEQYFIQQGGGPDKKGHQFSCVCLHGDRKPHERKQNLERFKKGDVRFLICTDVAARGIDIHGVPYVINVTLPDEKQNYVHRIGRVGRAERMGLAISLVATEKEKVWYHVCSSRGKGCYNTRLKEDGGCTIWYNEMQLLSEIEEHLNCTISQVEPDIKVPVDEFDGKVTYGQKRAAGGGSYKGHVDILAPTVQELAALEKEAQTSFLHLGYLPNQLFRTF
- Relative to UNC0638 UNC Heavy: 0.02 log base 2
- Relative to UNC0638 UNC Light: 0.29 log base 2
- Relative to UNC0638 Average: 0.16 log base 2

B3: CMAS: protein with methylated lysine identified in 3xMBT pull-down (protein, UniProt Q8NFW8 1-434, looked up)
N-acylneuraminate …: MDSVEKGAATSVSNPRGRPSRGRPPKLQRNSRGGQGRGVEKPPHLAALILARGGSKGIPLKNIKHLAGVPLIGWVLRAALDSGAFQSVWVSTDHDEIENVAKQFGAQVHRRSSEVSKDSSTSLDAIIEFLNYHNEVDIVGNIQATSPCLHPTDLQKVAEMIREEGYDSVFSVVRRHQFRWSEIQKGVREVTEPLNLNPAKRPRRQDWDGELYENGSFYFAKRHLIEMGYLQGGKMAYYEMRAEHSVDIDVDIDWPIAEQRVLRYGYFGKEKLKEIKLLVCNIDGCLTNGHIYVSGDQKEIISYDVKDAIGISLLKKSGIEVRLISERACSKQTLSSLKLDCKMEVSVSDKLAVVDEWRKEMGLCWKEVAYLGNEVSDEECLKRVGLSGAPADACSTAQKAVGYICKCNGGRGAIREFAEHICLLMEKVNNSCQK
- Relative to UNC0638 UNC Heavy: 0.22 log base 2
- Relative to UNC0638 UNC Light: 0.12 log base 2
- Relative to UNC0638 Average: 0.17 log base 2
